Assay results from patent publication US20230132049A1 (Genmab, published 2023).

Experiments:
human CD30 [1] = target: T1, human CD30 (human, UniProt P28908 19-595); assay: cell-based or functional assay
T1 sequence: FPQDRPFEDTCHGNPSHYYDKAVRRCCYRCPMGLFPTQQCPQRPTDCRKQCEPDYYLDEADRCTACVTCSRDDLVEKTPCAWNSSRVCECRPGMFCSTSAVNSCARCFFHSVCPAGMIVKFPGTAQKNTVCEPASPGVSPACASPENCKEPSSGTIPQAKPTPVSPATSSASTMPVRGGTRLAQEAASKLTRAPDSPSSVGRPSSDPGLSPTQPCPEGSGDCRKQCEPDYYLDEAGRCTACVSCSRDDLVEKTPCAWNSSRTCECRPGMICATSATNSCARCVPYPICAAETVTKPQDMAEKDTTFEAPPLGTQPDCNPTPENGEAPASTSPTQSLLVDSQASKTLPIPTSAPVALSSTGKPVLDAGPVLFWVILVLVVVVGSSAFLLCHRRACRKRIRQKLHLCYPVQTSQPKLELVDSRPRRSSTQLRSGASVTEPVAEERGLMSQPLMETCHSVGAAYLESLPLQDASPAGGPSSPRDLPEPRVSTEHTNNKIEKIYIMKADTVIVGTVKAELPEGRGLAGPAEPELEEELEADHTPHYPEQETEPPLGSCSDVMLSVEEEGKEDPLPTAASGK

human CD30 [2] = target: T1, human CD30; assay: cell-based or functional assay; remark: listed apart in the source
human CD30 [3] = target: T1, human CD30; assay: flow cytometry on HEK293 cells transfected with human CD30
complement protein C1q = target: T2, complement protein C1q (human, UniProt P02745 23-245; P02746 28-253; P02747 29-245); assay: flow cytometry with FITC anti-C1q: C1q from 20% human serum on activated human CD8+ T cells incubated with the antibody
T2 construct: Native C1q in 20% human serum
Method: Activated CD8⁺ T cells were seeded in a round-bottom 96-well plate (30,000 cells/well), pelleted, and resuspended in 30 μL assay medium (RPMI-1640 with 25 mM HEPES and L-glutamine, supplemented with 0.1% [w/v] bovine serum albumin fraction V (BSA; Roche, cat. no. 10735086001) and penicillin/streptomycin).
Human serum (20 μL/well; Sanquin, lot 20L15-02), as a source of C1q, was added to a final concentration of 20%. Cells were incubated on ice for 45 min, followed by two washes with cold GMB FACS buffer and incubation with 50 μL fluorescein isothiocyanate (FITC)-conjugated rabbit anti-human C1q (final concentration of 20 μg/mL (DAKO, cat no. F0254); diluted 1:75 in GMB FACS buffer) in the presence or absence of allophycocyanin-conjugated mouse-anti-CD8 (BD Biosciences, cat. no. 555369; diluted 1:50 in GMB FACS buffer) in the dark at 4° C. for 30 min. […] C1q binding to viable cells (as identified by DAPI exclusion) was analyzed by flow cytometry on an iQue3 Screener (Intellicyt Corporation). Data were analyzed using iQue software (Intellicyt Corporation, ForeCyt® Enterprise Client Edition 6.2 [R3], Version 6.2.652).

T2 sequence (P02745 23-245 limits assumed, chain 1 of 3): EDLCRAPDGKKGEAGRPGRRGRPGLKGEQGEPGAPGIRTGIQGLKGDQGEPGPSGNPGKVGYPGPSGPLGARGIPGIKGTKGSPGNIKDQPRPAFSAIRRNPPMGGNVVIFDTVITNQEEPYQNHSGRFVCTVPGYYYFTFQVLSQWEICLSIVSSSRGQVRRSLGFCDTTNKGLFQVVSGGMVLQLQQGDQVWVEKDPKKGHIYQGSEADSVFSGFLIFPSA
T2 sequence (P02746 28-253 limits assumed, chain 2 of 3): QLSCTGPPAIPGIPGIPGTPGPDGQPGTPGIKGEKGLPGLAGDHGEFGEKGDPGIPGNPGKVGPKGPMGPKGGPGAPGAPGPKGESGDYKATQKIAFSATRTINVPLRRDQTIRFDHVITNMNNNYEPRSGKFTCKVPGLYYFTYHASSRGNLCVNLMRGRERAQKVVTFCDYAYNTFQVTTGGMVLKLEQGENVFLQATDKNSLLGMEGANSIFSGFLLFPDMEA
T2 sequence (P02747 29-245 limits assumed, chain 3 of 3): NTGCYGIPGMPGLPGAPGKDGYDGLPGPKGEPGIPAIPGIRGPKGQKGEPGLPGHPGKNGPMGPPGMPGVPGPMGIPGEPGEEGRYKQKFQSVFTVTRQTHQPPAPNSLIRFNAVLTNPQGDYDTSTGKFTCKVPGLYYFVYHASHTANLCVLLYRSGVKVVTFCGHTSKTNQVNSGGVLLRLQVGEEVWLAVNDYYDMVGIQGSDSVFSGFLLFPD

B1: bsG1-huCD3-FEAL×CD30-MDX060-FERR (bispecific antibody, human IgG1, kappa, lambda)
heavy 1: not shown
light 1: not shown
heavy 2: QVQLQQWGAGLLKPSETLSLTCAVYGGSFSAYYWSWIRQPPGKGLEWIGDINHGGGTNYNPSLKSRVTISVDTSKNQFSLKLNSVTAADTAVYYCASLTAYWGQGSLVTVSSASTKGPSVFPLAPSSKSTSGGTAALGCLVKDYFPEPVTVSWNSGALTSGVHTFPAVLQSSGLYSLSSVVTVPSSSLGTQTYICNVNHKPSNTKVDKRVEPKSCDKTHTCPPCPAPEFERGPSVFLFPPKPKDTLMISRTPEVTCVVVDVSHEDPEVKFNWYVDGVEVHNAKTKPREEQYNSTYRVVSVLTVLHQDWLNGKEYKCKVSNKALPAPIEKTISKAKGQPREPQVYTLPPSREEMTKNQVSLTCLVKGFYPSDIAVEWESNGQPENNYKTTPPVLDSDGSFFLYSRLTVDKSRWQQGNVFSCSVMHEALHNHYTQKSLSLSPG
light 2: DIQMTQSPTSLSASVGDRVTITCRASQGISSWLTWYQQKPEKAPKSLIYAASSLQSGVPSRFSGSGSGTDFTLTISSLQPEDFATYYCQQYDSYPITFGQGTRLEIKRTVAAPSVFIFPPSDEQLKSGTASVVCLLNNFYPREAKVQWKVDNALQSGNSQESVTEQDSKDSTYSLSSTLTLSKADYEKHKVYACEVTHQGLSSPVTKSFNRGEC
notes: one arm of each; also called bsG1-huCD3×CD30-MDX060
cytotoxicity IC50 (µg/mL) average, Karpas-299 cells (human CD30 [1]): 0.029 µg/mL
cytotoxicity maximum lysis (%) average, Karpas-299 cells (human CD30 [1]): 52.3%
Cytotoxicity, Average IC50 (µg/mL), KI-JK cells (human CD30 [2]): 0.0015 µg/mL
Cytotoxicity, Average IC50 (µg/mL), L-428 cells (human CD30 [2]): 0.002 µg/mL
EC50 (read off the curve) (human CD30 [3]): ~0.09 µg/mL
binding result (complement protein C1q): no binding (tested: 30 µg/mL)
